The record followed here is patent US20220119534A1 (DRAGONFLY THERAPEUTICS, published 2022).

“And” between values parts separate entries of the source, which are not always exact repeats. Equal values may be shown once.

In test [1] the target is T1, mFc-hNKG2D (human, UniProt P26718 73-216).
T1 construct: extracellular domain; Made in house (Dragonfly Tx); the order of tag and ECD follows the name mFc-hNKG2D; also called mFc-tagged human NKG2D; not shown: mouse Fc tag
T1 sequence (looked up): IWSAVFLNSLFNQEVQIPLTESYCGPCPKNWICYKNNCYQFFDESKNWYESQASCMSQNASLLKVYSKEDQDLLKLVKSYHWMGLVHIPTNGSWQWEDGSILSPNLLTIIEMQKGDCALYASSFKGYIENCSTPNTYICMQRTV
Description: SPR Biacore 8K 37 C; mFc-hNKG2D captured on anti-mFc chip, TriNKET as analyte; steady state fit; after 2 wks 40 C at pH 8.0. (Surface plasmon resonance follows binding to a sensor surface in real time, without labels.)

The target in test [2] is T1, mFc-hNKG2D. Description: SPR Biacore 8K 37 C; mFc-hNKG2D captured on anti-mFc chip, TriNKET as analyte; 1:1 kinetic fit; after 4 wks 40 C in HST pH 6.0.
Description: Association was monitored for 60 seconds and dissociation was monitored for 60 seconds. Surfaces were regenerated between cycles with three pulses of 10 mM glycine-HCl, pH 1.7 injected for 20 seconds at 100 μL/min. HBS-EP+ (1×) buffer was used throughout the experiment. Data were analyzed using Biacore 8K Insight evaluation software (GE Healthcare).
Test [3] addresses T2, Human CD32b (human, UniProt P31994 46-217, limits assumed, biotinylated).
T2 construct: Bought recombinant receptor; also called hFcγRIIb
T2 sequence (looked up): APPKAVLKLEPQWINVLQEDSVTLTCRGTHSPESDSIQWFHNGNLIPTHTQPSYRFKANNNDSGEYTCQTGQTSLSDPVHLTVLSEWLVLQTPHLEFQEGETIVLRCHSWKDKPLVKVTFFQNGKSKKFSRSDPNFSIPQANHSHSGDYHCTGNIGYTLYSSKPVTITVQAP
Description: SPR, steady state fit.

Test [4] has as its target T3, Human CLEC12A-His (human, UniProt Q5QGZ9 65-265).
T3 construct: Recombinant soluble protein made in house; also called hCLEC12A-His; hCLEC12A; not shown: His tag
T3 sequence: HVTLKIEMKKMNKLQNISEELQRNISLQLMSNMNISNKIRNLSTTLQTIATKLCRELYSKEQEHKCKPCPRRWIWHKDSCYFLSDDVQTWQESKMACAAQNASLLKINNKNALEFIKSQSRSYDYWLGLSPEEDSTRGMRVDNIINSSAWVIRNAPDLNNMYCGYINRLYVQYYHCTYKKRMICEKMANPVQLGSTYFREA
Description: SPR; control sample (pH 8 stress study).

In test [5] the target is T4, mFc-hNKG2D (human, UniProt P26718 73-216).
T4 construct: extracellular domain; Recombinant mFc-tagged NKG2D dimer, made in house; also called human NKG2D; not shown: mouse Fc tag
T4 sequence (looked up): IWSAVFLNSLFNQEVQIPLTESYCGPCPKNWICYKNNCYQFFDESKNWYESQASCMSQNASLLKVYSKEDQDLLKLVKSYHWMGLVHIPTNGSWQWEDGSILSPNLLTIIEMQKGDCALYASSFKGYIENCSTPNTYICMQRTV
Description: SPR; control sample (pH 8 stress study).

The target in test [6] is T5, Human CD16a V158 (human, UniProt P08637 17-208, biotinylated).
T5 construct: Bought recombinant receptor; also called hCD16a (V158); hFcγRIIIa V158
Description: SPR; control sample (pH 8 stress study).

Test [7] deals with T4, mFc-hNKG2D. Description: SPR; sample after 4 weeks at 40 C in HST pH 6.0.
For test [8], the target named is T6, recombinant human CD32a R131 (human, UniProt P12318 36-218, limits assumed, biotinylated).
T6 construct: also called FcγRIIa R131
T6 sequence (looked up): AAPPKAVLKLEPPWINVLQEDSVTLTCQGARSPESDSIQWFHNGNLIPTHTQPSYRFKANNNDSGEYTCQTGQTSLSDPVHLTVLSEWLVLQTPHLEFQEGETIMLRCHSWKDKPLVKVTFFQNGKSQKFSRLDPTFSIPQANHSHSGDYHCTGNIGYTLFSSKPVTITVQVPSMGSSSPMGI
Description: SPR 25C, steady state.

T5 sequence (P08637 17-208 F176V limits assumed): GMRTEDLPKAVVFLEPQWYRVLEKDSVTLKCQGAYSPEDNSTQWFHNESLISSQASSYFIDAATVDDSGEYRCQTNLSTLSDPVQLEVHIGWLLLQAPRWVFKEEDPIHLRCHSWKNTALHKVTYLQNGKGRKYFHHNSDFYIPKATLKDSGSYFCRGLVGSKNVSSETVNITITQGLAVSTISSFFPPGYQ

B1: F3'-1602 TriNKET (bispecific antibody, human IgG1, kappa)
chain: QLQLQESGPGLVKPSETLSLTCTVSGFSLTNYGLHWIRQPPGKCLEWIGVIWSGGKTDYNPSLKSRVTISKDTSKNQFSLKLSSVQAADTAVYYCAKYDYDDSLDYWGQGTLVTVSSGGGGSGGGGSGGGGSGGGGSDIQMTQSPSSLSASVGDRVTITCHASQNINFWLSWYQQKPGKAPKLLIYEASNLHTGVPSRFSGSGSGTRFTLTISSLQPEDIATYYCQQSHSYPLTFGCGTKLEIKGSDKTHTCPPCPAPELLGGPSVFLFPPKPKDTLMISRTPEVTCVVVDVSHEDPEVKFNWYVDGVEVHNAKTKPREEQYNSTYRVVSVLTVLHQDWLNGKEYKCKVSNKALPAPIEKTISKAKGQPREPRVYTLPPCRDELTKNQVSLTCLVKGFYPSDIAVEWESNGQPENNYKTTPPVLVSDGSFTLYSKLTVDKSRWQQGNVFSCSVMHEALHNHYTQKSLSLSPG
heavy: EVQLVESGGGLVKPGGSLRLSCAASGFTFSSYSMNWVRQAPGKGLEWVSSISSSSSYIYYADSVKGRFTISRDNAKNSLYLQMNSLRAEDTAVYYCARGAPIGAAAGWFDPWGQGTLVTVSSASTKGPSVFPLAPSSKSTSGGTAALGCLVKDYFPEPVTVSWNSGALTSGVHTFPAVLQSSGLYSLSSVVTVPSSSLGTQTYICNVNHKPSNTKVDKKVEPKSCDKTHTCPPCPAPELLGGPSVFLFPPKPKDTLMISRTPEVTCVVVDVSHEDPEVKFNWYVDGVEVHNAKTKPREEQYNSTYRVVSVLTVLHQDWLNGKEYKCKVSNKALPAPIEKTISKAKGQPREPQVCTLPPSRDELTENQVSLTCLVKGFYPSDIAVEWESNGQPENNYKTTPPVLDSDGSFFLYSWLTVDKSRWQQGNVFSCSVMHEALHNHYTQKSLSLSPG
light: DIQMTQSPSSVSASVGDRVTITCRASQGISSWLAWYQQKPGKAPKLLIYAASSLQSGVPSRFSGSGSGTDFTLTISSLQPEDFATYYCQQGVSFPRTFGGGTKVEIKRTVAAPSVFIFPPSDEQLKSGTASVVCLLNNFYPREAKVQWKVDNALQSGNSQESVTEQDSKDSTYSLSSTLTLSKADYEKHKVYACEVTHQGLSSPVTKSFNRGEC
notes: Trispecific F3' format: CLEC12A scFv-Fc paired with NKG2D Fab-Fc; Stressed and control samples of the stability studies are the same molecule; also called AB0237
One may read the Kd as a measure of binding affinity in units of concentration. By koff is commonly meant the rate constant with which the complex falls apart. Low values mean slow dissociation, high ones fast dissociation. One may read the kon as a measure of how fast the partners come together. High values mean faster complex formation, low ones slower complex formation. The molecule B1 had a Kd in test [1] of 919 nM. In test [2], this molecule came in with a Kd of 762 nM, a koff of 0.0986 s⁻¹ and a kon of 129000 M⁻¹ s⁻¹.

B2: AB0192 TriNKET (other)
chain: EVQLVESGGGVVQPGGSLRLSCAASGFTFNAFGMHWVRQAPGKCLEWVAFISSGSTSIYYANTVKGRFTISRDNSKNTLYLQMNSLRAEDTAVYYCARDGYPTGGAMDYWGQGTSVTVSSGGGGSGGGGSGGGGSGGGGSDIQMTQSPSSLSASVGDRVTITCKASQDIYNYLSWFQQKPGKAPKPLIYRANILVSGVPSRFSGSGSGQDYTFTISSLQPEDIATYYCLQFDAFPFTFGCGTKLEIKGSDKTHTCPPCPAPELLGGPSVFLFPPKPKDTLMISRTPEVTCVVVDVSHEDPEVKFNWYVDGVEVHNAKTKPREEQYNSTYRVVSVLTVLHQDWLNGKEYKCKVSNKALPAPIEKTISKAKGQPREPRVYTLPPCRDELTKNQVSLTCLVKGFYPSDIAVEWESNGQPENNYKTTPPVLVSDGSFTLYSKLTVDKSRWQQGNVFSCSVMHEALHNHYTQKSLSLSPG
heavy: EVQLVESGGGLVKPGGSLRLSCAASGFTFSSYSMNWVRQAPGKGLEWVSSISSSSSYIYYADSVKGRFTISRDNAKNSLYLQMNSLRAEDTAVYYCARGAPIGAAAGWFDPWGQGTLVTVSSASTKGPSVFPLAPSSKSTSGGTAALGCLVKDYFPEPVTVSWNSGALTSGVHTFPAVLQSSGLYSLSSVVTVPSSSLGTQTYICNVNHKPSNTKVDKKVEPKSCDKTHTCPPCPAPELLGGPSVFLFPPKPKDTLMISRTPEVTCVVVDVSHEDPEVKFNWYVDGVEVHNAKTKPREEQYNSTYRVVSVLTVLHQDWLNGKEYKCKVSNKALPAPIEKTISKAKGQPREPQVCTLPPSRDELTENQVSLTCLVKGFYPSDIAVEWESNGQPENNYKTTPPVLDSDGSFFLYSWLTVDKSRWQQGNVFSCSVMHEALHNHYTQKSLSLSPG
light: DIQMTQSPSSVSASVGDRVTITCRASQGISSWLAWYQQKPGKAPKLLIYAASSLQSGVPSRFSGSGSGTDFTLTISSLQPEDFATYYCQQGVSFPRTFGGGTKVEIKRTVAAPSVFIFPPSDEQLKSGTASVVCLLNNFYPREAKVQWKVDNALQSGNSQESVTEQDSKDSTYSLSSTLTLSKADYEKHKVYACEVTHQGLSSPVTKSFNRGEC
notes: the condition stands under assay; also called AB0192 Lot AB0192-005
On to B2, for which the Kd is 6500 nM and 5600 nM and 5200 nM and 7000 nM in test [3]; 1.68 nM in test [4]; 588 nM in test [5]; 171 nM in test [6]; 602 nM in test [7]. In addition, the koff came out at 0.00129 s⁻¹ in test [4], 0.122 s⁻¹ in test [5], 0.0199 s⁻¹ in test [6] and 0.127 s⁻¹ in test [7]. The kon in test [4] turned out to be 771000 M⁻¹ s⁻¹; in test [5], 208000 M⁻¹ s⁻¹; in test [6], 117000 M⁻¹ s⁻¹; in test [7] it was 211000 M⁻¹ s⁻¹.

B3: F3'-1602 TriNKET (other)
chain: QLQLQESGPGLVKPSETLSLTCTVSGFSLTNYGLHWIRQPPGKCLEWIGVIWSGGKTDYNPSLKSRVTISKDTSKNQFSLKLSSVQAADTAVYYCAKYDYDDSLDYWGQGTLVTVSSGGGGSGGGGSGGGGSGGGGSDIQMTQSPSSLSASVGDRVTITCHASQNINFWLSWYQQKPGKAPKLLIYEASNLHTGVPSRFSGSGSGTRFTLTISSLQPEDIATYYCQQSHSYPLTFGCGTKLEIKGSDKTHTCPPCPAPELLGGPSVFLFPPKPKDTLMISRTPEVTCVVVDVSHEDPEVKFNWYVDGVEVHNAKTKPREEQYNSTYRVVSVLTVLHQDWLNGKEYKCKVSNKALPAPIEKTISKAKGQPREPRVYTLPPCRDELTKNQVSLTCLVKGFYPSDIAVEWESNGQPENNYKTTPPVLVSDGSFTLYSKLTVDKSRWQQGNVFSCSVMHEALHNHYTQKSLSLSPG
heavy: EVQLVESGGGLVKPGGSLRLSCAASGFTFSSYSMNWVRQAPGKGLEWVSSISSSSSYIYYADSVKGRFTISRDNAKNSLYLQMNSLRAEDTAVYYCARGAPIGAAAGWFDPWGQGTLVTVSSASTKGPSVFPLAPSSKSTSGGTAALGCLVKDYFPEPVTVSWNSGALTSGVHTFPAVLQSSGLYSLSSVVTVPSSSLGTQTYICNVNHKPSNTKVDKKVEPKSCDKTHTCPPCPAPELLGGPSVFLFPPKPKDTLMISRTPEVTCVVVDVSHEDPEVKFNWYVDGVEVHNAKTKPREEQYNSTYRVVSVLTVLHQDWLNGKEYKCKVSNKALPAPIEKTISKAKGQPREPQVCTLPPSRDELTENQVSLTCLVKGFYPSDIAVEWESNGQPENNYKTTPPVLDSDGSFFLYSWLTVDKSRWQQGNVFSCSVMHEALHNHYTQKSLSLSPG
light: DIQMTQSPSSVSASVGDRVTITCRASQGISSWLAWYQQKPGKAPKLLIYAASSLQSGVPSRFSGSGSGTDFTLTISSLQPEDFATYYCQQGVSFPRTFGGGTKVEIKRTVAAPSVFIFPPSDEQLKSGTASVVCLLNNFYPREAKVQWKVDNALQSGNSQESVTEQDSKDSTYSLSSTLTLSKADYEKHKVYACEVTHQGLSSPVTKSFNRGEC
notes: CLEC12A scFv-Fc, NKG2D A49MI Fab-Fc, human IgG1 Fc; also called AB0237
Take B3: the Kd in test [8] was 1400 nM and 1300 nM and 1700 nM and 1200 nM.
